Laboratory results from patent US20230212554A1 (published 2023).

Tests used:
[1] = molecular target: T1, NP of A/California/07/2009(H1N1/H1S) (influenza A virus, NYMC X-181 derived …); assay: ELISA on virus-infected fixed MDCK cells
[2] = molecular target: T1, NP of A/California/07/2009(H1N1/H1S); assay: sandwich ELISA, capture IgG; NP of lysed virus titrated; HRP-NP16 detection
[3] = molecular target: T1, NP of A/California/07/2009(H1N1/H1S); assay: sandwich ELISA, capture IgG; NP of lysed virus titrated; HRP-NP17 detection

T1 sequence (P03466 whole entry): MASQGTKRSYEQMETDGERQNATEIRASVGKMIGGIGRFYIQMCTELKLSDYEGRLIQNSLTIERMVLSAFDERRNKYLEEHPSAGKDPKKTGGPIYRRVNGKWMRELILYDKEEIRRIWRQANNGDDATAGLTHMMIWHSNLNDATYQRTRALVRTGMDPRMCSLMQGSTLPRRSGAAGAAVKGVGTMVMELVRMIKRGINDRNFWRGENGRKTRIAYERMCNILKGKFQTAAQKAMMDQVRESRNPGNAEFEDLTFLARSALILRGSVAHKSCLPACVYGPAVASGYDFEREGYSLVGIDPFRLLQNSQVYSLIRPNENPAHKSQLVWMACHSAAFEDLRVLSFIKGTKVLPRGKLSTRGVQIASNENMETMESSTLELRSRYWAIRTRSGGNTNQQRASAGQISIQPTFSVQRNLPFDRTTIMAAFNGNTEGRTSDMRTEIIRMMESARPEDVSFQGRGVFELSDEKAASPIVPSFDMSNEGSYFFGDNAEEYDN

B1: NP13 (antibody, V domains shown)
VH: EVQLVESGGGLVQPGGSLRLSCAASGFTINNYGIHWVRQAPGKGLEWVASIGPYGGSTYYADSVKGRFTISADTSKNTAYLQMNSLRAEDTAVYYCARFGYFNWLDMDYWGQGTLVTVSS
VL: DIQMTQSPSSLSASVGDRVTITCRASQDVGYWVAWYQQKPGKAPKLLISSASGLYSGVPSRFSGSGSGTDFTLTISSLQPEDFATYYCQQGWDWPITFGQGTKVEIKR
- EC50 [1]: 1.68 nM
- EC50 [2]: 168 nM
- EC50 [3]: 47.9 nM

B2: NP12 (antibody, V domains shown)
VH: EVQLVESGGGLVQPGGSLRLSCAASGFTIDNGYIHWVRQAPGKGLEWVASIWPSWGSTYYADSVKGRFTISADTSKNTAYLQMNSLRAEDTAVYYCARGFYYYGDYWGQGTLVTVSS
VL: DIQMTQSPSSLSASVGDRVTITCRASQDVGGNVAWYQQKPGKAPKLLISSTAGLYSGVPSRFSGSGSGTDFTLTISSLQPEDFATYYCQQYYDFPLTFGQGTKVEIKR
- EC50 [1]: 6.09 nM

B3: NP21 (antibody, V domains shown)
VH: EVQLVESGGGLVQPGGSLRLSCAASGFTINGYGIHWVRQAPGKGLEWVAGIWPYGGSTFYADSVKGRFTISADTSKNTAYLQMNSLRAEDTAVYYCARFYNNHGGIMDYWGQGTLVTVSS
VL: DIQMTQSPSSLSASVGDRVTITCRASQDVYFYVAWYQQKPGKAPKLLIYGSRWLYSGVPSRFSGSGSGTDFTLTISSLQPEDFATYYCQQYSNFPVTFGQGTKVEIKR
- EC50 [1]: 0.73 nM
- EC50 [2]: 2.67 nM
- EC50 [3]: 0.815 nM

B4: NP17 (antibody, V domains shown)
VH: EVQLVESGGGLVQPGGSLRLSCAASGFTISGGSIHWVRQAPGKGLEWVASIWPFGGSTFYADSVKGRFTISADTSKNTAYLQMNSLRAEDTAVYYCARFGHGHNVIMDYWGQGTLVTVSS
VL: DIQMTQSPSSLSASVGDRVTITCRASQDVGYSVAWYQQKPGKAPKLLISSPGGLYSGVPSRFSGSGSGTDFTLTISSLQPEDFATYYCQQYYDYPVTFGQGTKVEIKR
- EC50 [1]: 28.7 nM
- EC50 [2]: 3.28 nM
- EC50 [3]: 1.02 nM

B5: NP18 (antibody, V domains shown)
VH: EVQLVESGGGLVQPGGSLRLSCAASGFTISGGGIHWVRQAPGKGLEWVASIWPSWGSTSYADSVKGRFTISADTSKNTAYLQMNSLRAEDTAVYYCARFHNGGFLVMDYWGQGTLVTVSS
VL: DIQMTQSSSSLSASVGDRVTITCRASQDVGYYVAWYQQKPGKAPKLLIYGPRFLYSGVPSRFSGSGSGTDFTLTISSLQPEDFATYYCQQYSNWPITFGQGTKVEIKR
- EC50 [1]: 0.168 nM

B6: NP10 (antibody, V domains shown)
VH: EVQLVESGGGLVQPGGSLRLSCAASGFTIDNGSIHWVRQAPGKGLEWVAWIWPFGGSTSYADSVKGRFTISADTSKNTAYLQMNSLRAEDTAVYYCARSWSSGYDYWGQGTLVTVSS
VL: DIQMTQSPSSLSASVGDRVTITCRASQDVSWSVAWYQQKPGKAPKLLISGSTWLYSGVPSRFSGSGSGTDFTLTISSLQPEDFATYYCQQYSNSPITFGQGTKVEIKR
- EC50 [2]: 3.3 nM
- EC50 [3]: 0.798 nM

B7: NP15 (antibody, V domains shown)
VH: EVQLVESGGGLVQPGGSLRLSCAASGFTISNWYIHWVRQAPGKGLEWVAGIGPYGGSTYYADSVKGRFTISADTSKNTAYLQMNSLRAEDTAVYYCARFHWDHLHGMDYWGQGTLVTVSS
VL: DIQMTQSPSSLSASVGDRVTITCRASQDVDNNVAWYQQKPGKAPKLLISYSTGLYSGVPSRFSGSGSGTDFTLTISSLQPEDFATYYCQQYWNYPITFGQGTKVEIKR
- EC50 [1]: 0.249 nM
- EC50 [2]: 2.79 nM
- EC50 [3]: 0.806 nM

B8: NP4 (antibody, V domains shown)
VH: EVQLVESGGGLVQPGGSLRLSCAASGFTISNSSIHWVRQAPGKGLEWVAGIGPSGGYTFYADSVKGRFTISADTSKNTAYLQMNSLRAEDTAVYYCARFHSHNSYYSYSHYGYMDYWGQGTLVTVSS
VL: DIQMTQSPSSLSASVGDRVTITCRASQDVGWGVAWYQQKPGKAPKLLISGPSSLYSGVPSRFSGSGSGTDFTLTISSLQPEDFATYYCQQYFNYPITFGQGTKVEIKR
- EC50 [1]: 4.02 nM
- EC50 [2]: 2.11 nM
- EC50 [3]: 0.862 nM

B9: NP5 (antibody, V domains shown)
VH: EVQLVESGGGLVQPGGSLRLSCAASGFTISNGSIHWVRQAPGKGLEWVAGIWPSGGSTSYADSVKGRFTISADTINNSAYLQMNSLRAEDTAVYYCARWNYWGQGTLVTVSS
VL: DIQMTQSPSSLSASVGDRVTITCRASQDVGWSVAWYQQKPGKAPKLLIYGSRWLYSGVPSRFSGSGSGTDFTLTISSLQPEDFATYYCQQGYNGPLTFGQGTKVEIKR
- EC50 [2]: 3.32 nM
- EC50 [3]: 0.918 nM

B10: NP16 (antibody, V domains shown)
VH: EVQLVESGGGLVQPGGSLRLSCAASGFTIGNSGIHWVRQAPGKGLEWVAWIGPYWGFTSYADSVKGRFTISADTSKNTAYLQMNSLRAEDTAVYYCARFGNHWHLFMDYWGQGTLVTVSS
VL: DIQMTQSPSSLSASVGDRVTITCRASQDVGSYVAWYQQKPGKAPKLLISWTTGLYSGVPSRFSGSGSGTDFTLTISSLQPEDFATYYCQQYFSYPVTFGQGTKVEIKR
- EC50 [1]: 0.239 nM
- EC50 [2]: 4.41 nM
- EC50 [3]: 0.919 nM

B11: NP8 (antibody, V domains shown)
VH: EVQLVESGGGLVQPGGSLRLSCAASGFTINSFGIHWVRQAPGKGLEWVAGIGPFGGSTFYADSVKGRFTISADTSKNTAYLQMNSLRAEDTAVYYCARGFYWFDYWGQGTLVTVSS
VL: DIQMTQSPSSLSASVGDRVTITCRASQDVDDSVAWYQQKPGKAPKLLIYWTRYLYSGVPSRFSGSGSGTDFTLTISSLQPEDFATYYCQQGYNYPLTFGQGTKVEIKR
- EC50 [2]: 2.33 nM
- EC50 [3]: 0.752 nM

B12: NP3 (antibody, V domains shown)
VH: EVQLVESGGGLVQPGGSLRLSCAASGFTISNYGIHWVRQAPGKGLEWVAGIWPFGGFTSYADSVKGRFTISADTSKNTAYLQMNSLRAEDTAVYYCARFHWNDHGYMDYWGQGTLVTVSS
VL: DIQMTQSPSSLSASVGDRVTITCRASQDVGWYVAWYQQKPGKAPKLLIYSTTGLYSGVPSRFSGSGSGTDFTLTISSLQPEDFATYYCQQYYNYPITFGQGTKVEIKR
- EC50 [1]: 0.55 nM
- EC50 [2]: 1.96 nM
- EC50 [3]: 0.834 nM

B13: NP19 (antibody, V domains shown)
VH: EVQLVESGGGLVQPGGSLRLSCAASGFTISSWGIHWVRQAPGKGLEWVAGIGPFWGYTSYADSVKGRFTISADTSKNTAYLQMNSLRAEDTAVYYCARFGVDNYGYMDYWGQGTLVTVSS
VL: DIQMTQSPSSLSASVGDRVTITCRASQDVSGWVAWYQQKPGKAPKLLISWSTGLYSGVPSRFSGSGSGTDFTLTISSLQPEDFATYYCQQYFNFPVTFGQGTKVEIKR
- EC50 [1]: 0.304 nM
- EC50 [2]: 5.37 nM
- EC50 [3]: 0.863 nM

B14: NP6 (antibody, V domains shown)
VH: EVQLVESGGGLVQPGGSLRLSCAASGFTINDGSIHWVRQAPGKGLEWVAGIGPFGGFTYYADSVKGRFTISADTSKNTAYLQMNSLRAEDTAVYYCARSGYSGSFDYWGQGTLVTVSS
VL: DIQMTQSPSSLSASVGDRVTITCRASQDVYFGVAWYQQKPGKAPKLLIYGTSYLYSGVPSRFSGSGSGTDFTLTISSLQPEDFATYYCQQFSNWPITFGQGTKVEIKR
- EC50 [1]: 6.46 nM
- EC50 [2]: 3.12 nM
- EC50 [3]: 3.07 nM

B15: NP14 (antibody, V domains shown)
VH: EVQLVESGGGLVQPGGSLRLSCAASGFTIDNGGIHWVRQAPGKGLEWVASIWPSWGSTSYADSVKGRFTISADTSKNTAYLQMNSLRAEDTAVYYCARFNFGVFGVMDYWGQGTLVTVSS
VL: DIQMTQSPSSLSASVGDRVTITCRASQDVDNDVAWYQQKPGKAPKLLIYGPRGLYSGVPSRFSGSGSGTDFTLTISSLQPEDFATYYCQQYSSWPLTFGQGTKVEIKR
- EC50 [1]: 3.43 nM

B16: NP7 (antibody, V domains shown)
VH: EVQLVESGGGLVQPGGSLRLSCAASGFTISNGGIHWVRQAPGKGLEWVAGIGPYGGFTSYADSVKGRFTISADTSKNTAYLQMNSLRAEDTAVYYCARFYSNYYGYHGVMDYWGQGTLVTVSS
VL: DIQMTQSPSSLSASVGDRVTITCRASQDVFGWVAWYQQKPGKAPKLLISYSASLYSGVPSRFSGSGSGTDFTLTISSLQPEDFATYYCQQYFNYPLTFGQGTKVEIKR
- EC50 [2]: 2.36 nM
- EC50 [3]: 0.9 nM

B17: NP9 (antibody, V domains shown)
VH: EVQLVESGGGLVQPGGSLRLSCAASGFTINNGWIHWVRQAPGKGLEWVAGIGPYWGFTSYADSVKGRFMISADTSKNTAYLQMNSLRAEDTAVYYCARFDSDHDHHYSYYYYYDNGYMDYWGQGTLVTVSS
VL: DIQMTQSPSSLSASVGDRVTITCRASQDVWFSVAWYQQKPGKAPKLLIYGTTSLYSGVPSRFSGSGSGTDFTLTISSLQPEDFATYYCQQYFNYPLTFGQGTKVEIKR
- EC50 [1]: 2.14 nM
- EC50 [2]: 53.9 nM
